The labels stand for the following.
B1: Azoarcus group I ribozyme (parent)
chain: GUGCCUUGCGCCGGGAAACCACGCAAGGGAUGGUGUCAAAUUCGGCGAAACCUAAGCGCCCGCCCGGGCGUAUGGCAACGCCGAGCCAAGCUUCGGCGCCUGCGCCGAUGAAGGUGUAGAGACUAGACGGCACCCACCUAAGGCAAACGCUAUGGUGAAGGCAUAGUCCAGGGAGUGGCGAAAGUCACACAAACCGG

The variants in this series derive from B1. Briefly: reverse-splicing fitness (ratio to wild type); higher = more active; in vitro selection; Mg2+ level not given. In a few lines:
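An in vitro group I ribozyme library with randomized positions was T7-transcribed and gel-purified. In triplicate, 10 pmol RNA in EPPS pH 7.5 was reacted with 50 pmoles of a 30-nt RNA substrate for 1 h at 37 °C across several added MgCl2 levels (1–48 mM), then stopped with EDTA. Products were reverse transcribed from a substrate-complementary primer, PCR-amplified and sequenced (HiSeq 4000). Fitness is a variant's read proportion after selection over that before, normalised to wild type.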
Turning to C82U A120C C150A U176G, the reverse-splicing fitness was 0.00583. In the case of C82U A120C C150A U176C, the reverse-splicing fitness came out at 0.0193.

As for C82U A120C C150A U176A, the reverse-splicing fitness is 0.0163. For the variant C82U A120G A145U C150G C169G U176A, the reverse-splicing fitness worked out at 0.00669.

C82U A120G A145U C150G C169G U176G: the reverse-splicing fitness came out at 0.00361. On to C82U A120G A145U C150G C169G U176C, for which the reverse-splicing fitness is 0.00534. Consider C82U A120C C150G C169G, for which the reverse-splicing fitness is 0.00683. C82U A120C C150G C169U: the reverse-splicing fitness was 0.00921.

For the variant C82U A120C C150G C169A, the reverse-splicing fitness came to 0.00883. For C82U A120C C150U C169A U176G, the reverse-splicing fitness was 0.00426.

In the case of C82U A120C C150U C169A U176C, the reverse-splicing fitness is 0.0107.

With C82U A120C C150U C169A U176A, the reverse-splicing fitness was found to be 0.0158. Consider C82U A120G A145C C169U U176C, for which the reverse-splicing fitness worked out at 0.0127.

Regarding C82U A120G A145C C169U U176A, the reverse-splicing fitness turned out to be 0.0224. With C82U A120G A145C C169U U176G, the reverse-splicing fitness is 0.00314. In the case of C82U A120G A145C C150U C169A U176A, the reverse-splicing fitness was found to be 0.00991. Consider C82U A120G A145C C150U C169A U176C, for which the reverse-splicing fitness turned out to be 0.00527.

Turning to C82U A120G A145C C150U C169A U176G, the reverse-splicing fitness stood at 0.00346. Regarding C82U A120C C169A, the reverse-splicing fitness amounted to 0.00809. As for C82U A120C C169U, the reverse-splicing fitness was determined as 0.0213. As for C82U A120C C169G, the reverse-splicing fitness is 0.00705.

Take C82U A120G C169A U176G: the reverse-splicing fitness amounted to 0.00354. In the case of C82U A120G C169A U176A, the reverse-splicing fitness came out at 0.0194. As for C82U A120G C169A U176C, the reverse-splicing fitness was determined as 0.0213. Turning to C82U A120G A145U C150A U176C, the reverse-splicing fitness turned out to be 0.0109. C82U A120G A145U C150A U176A: the reverse-splicing fitness is 0.00948.

With C82U A120G A145U C150A U176G, the reverse-splicing fitness is 0.00337. With C82U A120G A145C C150U C169U U176A, the reverse-splicing fitness is 0.0235. Regarding C82U A120G A145C C150U C169U U176G, the reverse-splicing fitness came to 0.00351.

C82U A120G A145C C150U C169U U176C: the reverse-splicing fitness worked out at 0.00975. As to C82U A120G A145C C150G U176G, the reverse-splicing fitness was determined as 0.00257.

Take C82U A120G A145C C150G U176A: the reverse-splicing fitness is 0.00438. Turning to C82U A120G A145C C150G U176C, the reverse-splicing fitness amounted to 0.00608. The value for C82U A120G C150U C169A was 0.0144. C82U A120G C150U C169U: the reverse-splicing fitness was 0.0137. In the case of C82U A120G C150U C169G, the reverse-splicing fitness came to 0.0167. As for C82U A120C C150A C169G U176G, the reverse-splicing fitness turned out to be 0.00373. As for C82U A120C C150A C169G U176A, the reverse-splicing fitness came to 0.0156. In the case of C82U A120C C150A C169G U176C, the reverse-splicing fitness is 0.0164. Consider C82U A120G A145G C150A C169A U176C, for which the reverse-splicing fitness came to 0.0191. With C82U A120G A145G C150A C169A U176A, the reverse-splicing fitness was 0.018. Turning to C82U A120G A145G C150A C169A U176G, the reverse-splicing fitness worked out at 0.00457.

For the variant C82U A120G C150U C169G U176A, the reverse-splicing fitness was found to be 0.015. In the case of C82U A120G C150U C169G U176G, the reverse-splicing fitness came out at 0.00429. Under C82U A120G C150U C169G U176C stands 0.0189; under C82U A120G C169U U176A, 0.0244.

Take C82U A120G C169U U176G: the reverse-splicing fitness was found to be 0.0054. With C82U A120G C169U U176C, the reverse-splicing fitness was found to be 0.0176. Under C82U A120G A145C C150U U176C stands 0.00744. Under C82U A120G A145C C150U U176A stands 0.00845; under C82U A120G A145C C150U U176G, 0.00347.

Take C82U A120G A145C C150G C169G U176C: the reverse-splicing fitness was found to be 0.00713. For C82U A120G A145C C150G C169G U176G, the reverse-splicing fitness amounted to 0.00336. In the case of C82U A120G A145C C150G C169G U176A, the reverse-splicing fitness was 0.00838. On to C82U A120C C150A C169U U176C, for which the reverse-splicing fitness turned out to be 0.0169. Regarding C82U A120C C150A C169U U176A, the reverse-splicing fitness is 0.0175. On to C82U A120C C150A C169U U176G, for which the reverse-splicing fitness came out at 0.00498. In the case of C82U A120G A145G C169U U176C, the reverse-splicing fitness stood at 0.0187.

As to C82U A120G A145G C169U U176G, the reverse-splicing fitness was 0.00378. Regarding C82U A120G A145G C169U U176A, the reverse-splicing fitness was 0.0237. C82U A120C C150G U176C: the reverse-splicing fitness was 0.0118. Take C82U A120C C150G U176G: the reverse-splicing fitness is 0.00299.

Take C82U A120C C150G U176A: the reverse-splicing fitness worked out at 0.00635. For C82U A120U A145C, the reverse-splicing fitness came to 0.153.

Regarding C82U A120G A145G U176G, the reverse-splicing fitness is 0.00485. C82U A120G A145G U176A: the reverse-splicing fitness stood at 0.0128. On to C82U A120G A145G U176C, for which the reverse-splicing fitness turned out to be 0.019. Take C82U A120G A145G: the reverse-splicing fitness amounted to 0.0245. Under C82U A120G A145C stands 0.0203; under C82U A120G A145U, 0.0237. C82U A120G A145U C150A C169G U176A: the reverse-splicing fitness amounted to 0.0114. Consider C82U A120G A145U C150A C169G U176C, for which the reverse-splicing fitness came out at 0.0133. With C82U A120G A145U C150A C169G U176G, the reverse-splicing fitness stood at 0.0037. Consider C82U A120G A145C C169G U176G, for which the reverse-splicing fitness was found to be 0.00391. For the variant C82U A120G A145C C169G U176A, the reverse-splicing fitness turned out to be 0.0276.

Regarding C82U A120G A145C C169G U176C, the reverse-splicing fitness turned out to be 0.0161. Regarding C82U A120G A145G C150U, the reverse-splicing fitness was 0.0208.

On to C82U A120G A145G C150G, for which the reverse-splicing fitness was 0.00813.

C82U A120G A145G C150A: the reverse-splicing fitness was 0.00966. The value for C82U A120G A145G C150U C169G U176G was 0.00383. Under C82U A120G A145G C150U C169G U176A stands 0.0132; under C82U A120G A145G C150U C169G U176C, 0.0207.

C82U A120G A145G C150G C169G U176C: the reverse-splicing fitness is 0.0112.

Source of the values: the RNAGym collection of RNA variant scans (doi:10.1093/molbev/msab373).
